Measured values taken from patent US20260265354A1 (JIANGSU MABWELL HEALTH PHARMACEUTICAL R AND D, published 2026).
Numbering of substitutions follows the chain as printed.

T1: Nectin-like-1 (UniProt Q8N126 25-330, limits assumed)
T1 construct: Bought recombinant protein; also called CADM3; IgSF4B
T1 sequence (looked up): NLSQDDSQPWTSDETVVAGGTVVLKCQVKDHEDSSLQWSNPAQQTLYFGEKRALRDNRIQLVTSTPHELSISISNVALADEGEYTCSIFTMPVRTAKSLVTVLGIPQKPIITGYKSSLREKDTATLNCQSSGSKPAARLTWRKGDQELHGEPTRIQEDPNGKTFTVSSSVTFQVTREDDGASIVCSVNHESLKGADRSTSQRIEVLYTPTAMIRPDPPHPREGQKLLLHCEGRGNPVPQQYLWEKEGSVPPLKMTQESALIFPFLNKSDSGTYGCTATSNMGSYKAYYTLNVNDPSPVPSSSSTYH

T2: Nectin-like-5 (UniProt P15151 21-343)
T2 construct: Bought recombinant protein; also called CD155; PVR
T2 sequence (looked up): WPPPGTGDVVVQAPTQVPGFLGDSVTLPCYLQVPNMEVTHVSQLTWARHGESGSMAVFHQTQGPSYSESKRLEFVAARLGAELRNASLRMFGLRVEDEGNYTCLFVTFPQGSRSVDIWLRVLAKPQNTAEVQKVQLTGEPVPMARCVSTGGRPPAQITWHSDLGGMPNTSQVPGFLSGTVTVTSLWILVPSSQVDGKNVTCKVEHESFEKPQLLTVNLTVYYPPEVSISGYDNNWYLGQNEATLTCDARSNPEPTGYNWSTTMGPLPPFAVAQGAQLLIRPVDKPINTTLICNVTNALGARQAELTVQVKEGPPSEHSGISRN

T3: recombinant human Nectin-4 protein (human, UniProt Q96NY8 32-349)
T3 construct: Prepared in-house (Jiangsu Mabwell) by transient transfection of CHO cells; also called PVRL-4; PRR-4
T3 sequence: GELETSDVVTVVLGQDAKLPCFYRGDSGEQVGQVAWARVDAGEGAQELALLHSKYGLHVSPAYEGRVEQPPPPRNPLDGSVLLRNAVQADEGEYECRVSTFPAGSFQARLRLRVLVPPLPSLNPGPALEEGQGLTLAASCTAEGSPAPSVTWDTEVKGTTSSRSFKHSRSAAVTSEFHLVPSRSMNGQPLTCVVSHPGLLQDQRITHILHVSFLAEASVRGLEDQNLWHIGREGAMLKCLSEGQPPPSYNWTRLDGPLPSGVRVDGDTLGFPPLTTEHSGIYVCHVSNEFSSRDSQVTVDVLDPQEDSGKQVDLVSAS

T4: Nectin-2 (UniProt Q92692 32-360, limits assumed)
T4 construct: Bought recombinant protein; also called CD112; PVRL-2
T4 sequence (looked up): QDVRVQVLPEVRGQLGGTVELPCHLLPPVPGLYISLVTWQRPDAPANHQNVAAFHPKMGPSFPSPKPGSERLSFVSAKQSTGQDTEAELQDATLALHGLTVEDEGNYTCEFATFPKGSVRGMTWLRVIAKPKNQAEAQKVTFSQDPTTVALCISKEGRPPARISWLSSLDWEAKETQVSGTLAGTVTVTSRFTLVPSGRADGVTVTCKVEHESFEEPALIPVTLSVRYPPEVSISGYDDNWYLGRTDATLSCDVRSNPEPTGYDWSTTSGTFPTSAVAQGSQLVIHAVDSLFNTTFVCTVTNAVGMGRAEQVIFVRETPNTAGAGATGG

T5: Nectin-1 (UniProt Q15223 31-334, limits assumed)
T5 construct: Bought recombinant protein; also called CD111; PVRL-1
T5 sequence (looked up): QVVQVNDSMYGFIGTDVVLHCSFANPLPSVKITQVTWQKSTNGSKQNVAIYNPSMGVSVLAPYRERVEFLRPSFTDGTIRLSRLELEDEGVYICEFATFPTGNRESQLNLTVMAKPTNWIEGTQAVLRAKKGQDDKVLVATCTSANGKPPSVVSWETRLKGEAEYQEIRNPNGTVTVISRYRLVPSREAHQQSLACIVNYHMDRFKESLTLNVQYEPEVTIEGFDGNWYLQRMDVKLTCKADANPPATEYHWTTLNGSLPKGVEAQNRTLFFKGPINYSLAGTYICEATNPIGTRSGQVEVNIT

B1: Antibody R012 (antibody, V domains shown)
VH: SKSVEESGGRLVTPGTPLTLTCTVSGFSLSTYAMSWVRQAPGKGLEYIGIISGRGTTYYASWLKGRFTISKTSTTVDLKITSPTTEDTATYFCARDAGISDVYTGYFNLWGQGTLVTVSS
VL: QPVLAQLPSASAALGASAKLTCTLSSAHRTYTIAWYQQQQGEAPRYLMMLKSDGSYTKGTGVPDRFSGSSSGADRYLIISSVQAADEADYYCGADDSGGYVFGGGTQLTVTG
notes: Rabbit monoclonal antibody from phage display; also called Nectin-4 rabbit monoclonal antibody R012; rabbit antibody R012
B2: Antibody R036 (antibody, V domains shown)
VH: SQSVEESGGRLVTPGTPLTLTCTVSGFSLSSYAMSWVRQAPGKGLEYIGIIGGRGTTYYAIWAKGRFTISKTSTTVDLKITSPTTEDTATYFCARDAGTTYVGTTYVATGYFNLWGQGTLVTVSS
VL: B1 VL with A5T, L7P, R29K, M49I, K58R, A85D
notes: Rabbit monoclonal antibody from phage display; also called Nectin-4 rabbit monoclonal antibody R036; rabbit antibody R036
B3: Antibody MM11 (antibody, mouse IgG1, kappa, V domains shown)
VH: DVQLQESGPGLVKPSQSLSLTCSVTGYSITSNFYWNWIRQFPGNRLEWMGYISYDGSNNYNPSLKNRISISRDTSKNQFFLKLNSVTTEDTATYYCVRADYWGQGTLVTVSA
VL: DTVMTQTPLSLPVSLGDQASISCRSSQSLESSDGHAYLNWYLQKPGQSPQLLIYRVSNRFSGVLHRFSGSGSGTDFTLKISRVEAEDLGVYFCLQFTHVPFTFGSGTKLEIKR
notes: Mouse monoclonal antibody from hybridoma; also called Nectin-4 mouse monoclonal antibody MM11; mouse antibody MM11

What follows are binders tested against T1, Nectin-like-1 (assay: ELISA, coated antigen, 0 ng/ml antibody (blank control)).
Procedure: (§1) Coating: Nectin-1, Nectin-2, Nectin-3, Nectin-4, Nectin-like-1, Nectin-like-2, Nectin-like-3, Nectin-like-4, and Nectin-like-5 were diluted to 5 μg/ml in coating buffer (carbonate buffer, pH 9.6) respectively. A 96-well plate was coat with 100 μl per well and incubated overnight at 2-8° C.;
(§2) Sample loading: The plate was taken out, patted dry, and washed twice with 200 μl/well of PBST, then patted dry. The Nectin-4 antibodies prepared in Example 1 (antibody MM11, antibody R012, and antibody R036) were diluted with 1% BSA/PBST to concentrations of 10 μg/ml, 1 μg/ml, 100 ng/ml, and 10 ng/ml, respectively. 1% BSA/PBST solution for dilution was set as a blank control. 100 μl per well was added to the 96-well plate, and incubated at room temperature for 2 hours;
(§3) Reaction termination and plate reading: 100 μl/well of 1 mol/L H3PO4 was added to terminate the reaction and the plated was read. The absorbances of wells in the plate at 450 nm with 650 nm as reference wavelength were read and recorded as OD_{450 nm-650 nm}.

Row | Binder | OD detection value
1 | B1 | 0.008 OD450 nm-650 nm
2 | B2 | 0.007 OD450 nm-650 nm
3 | B3 | 0.007 OD450 nm-650 nm

What follows are binders tested against T2, Nectin-like-5 in the same assay as above.
Procedure: as §1, §2, §3

Row | Binder | OD detection value
4 | B1 | 0.008 OD450 nm-650 nm
5 | B2 | 0.008 OD450 nm-650 nm
6 | B3 | 0.011 OD450 nm-650 nm

Each binder was assayed against T3, recombinant human Nectin-4 protein (assay: ELISA, coated antigen, antibody at 10000 ng/ml).
Procedure: as §1, §2, §3

Row | Binder | OD detection value
7 | B1 | 1.51 OD450 nm-650 nm
8 | B2 | 1.63 OD450 nm-650 nm
9 | B3 | 1.97 OD450 nm-650 nm

The binders below were run against T6, Nectin-3 (UniProt Q9NQS3 58-404, limits assumed) (assay: ELISA, coated antigen, antibody at 10000 ng/ml).
T6 construct: Bought recombinant protein; also called CD113; PVRL-3
T6 sequence (Q9NQS3 58-404 limits assumed): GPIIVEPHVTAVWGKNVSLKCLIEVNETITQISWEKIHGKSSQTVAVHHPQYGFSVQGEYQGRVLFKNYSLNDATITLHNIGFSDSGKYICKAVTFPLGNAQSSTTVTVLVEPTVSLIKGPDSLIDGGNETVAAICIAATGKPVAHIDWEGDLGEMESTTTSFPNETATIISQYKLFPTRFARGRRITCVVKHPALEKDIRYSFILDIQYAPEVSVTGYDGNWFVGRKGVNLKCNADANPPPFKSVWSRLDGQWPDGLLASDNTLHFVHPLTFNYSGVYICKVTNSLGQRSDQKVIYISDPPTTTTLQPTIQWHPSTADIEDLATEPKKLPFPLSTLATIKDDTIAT
Procedure: as §1, §2, §3

Row | Binder | OD detection value
10 | B1 | 0.007 OD450 nm-650 nm
11 | B2 | 0.008 OD450 nm-650 nm
12 | B3 | 0.006 OD450 nm-650 nm

These binders were tested against T1, Nectin-like-1 (assay: ELISA, coated antigen, antibody at 10000 ng/ml).
Procedure: as §1, §2, §3

Row | Binder | OD detection value
13 | B1 | 0.009 OD450 nm-650 nm
14 | B2 | 0.008 OD450 nm-650 nm
15 | B3 | 0.012 OD450 nm-650 nm

The binders below were run against T4, Nectin-2 (assay: ELISA, coated antigen, antibody at 10000 ng/ml).
Procedure: as §1, §2, §3

Row | Binder | OD detection value
16 | B1 | 0.008 OD450 nm-650 nm
17 | B2 | 0.007 OD450 nm-650 nm
18 | B3 | 0.017 OD450 nm-650 nm

The binders below were run against T2, Nectin-like-5 (assay: ELISA, coated antigen, antibody at 10000 ng/ml).
Procedure: as §1, §2, §3

Row | Binder | OD detection value
19 | B1 | 0.008 OD450 nm-650 nm
20 | B2 | 0.009 OD450 nm-650 nm
21 | B3 | 0.008 OD450 nm-650 nm

The binders below were run against T5, Nectin-1 (assay: ELISA, coated antigen, antibody at 10000 ng/ml).
Procedure: as §1, §2, §3

Row | Binder | OD detection value
22 | B1 | 0.008 OD450 nm-650 nm
23 | B2 | 0.006 OD450 nm-650 nm
24 | B3 | 0.012 OD450 nm-650 nm
